Assays:
[1] = biological target: HA-PKBα (haemagglutinin epitope-tagged human PKBα expressed in 293 cells) (human) (UniProt P31749); assay: cell-based or functional assay
[2] = biological target: GST-PKBα (full length human protein kinase Bα with N-terminal glutathione S-transferase, from unstimulated 293 cells) (human) [GST: P08515]; assay: cell-based or functional assay
Sequence of GST-PKBα (full length human protein kinase Bα with N-terminal glutathione S-transferase, from unstimulated 293 cells) (human) [GST: P08515] (P08515 1-218, tags or fused parts left off): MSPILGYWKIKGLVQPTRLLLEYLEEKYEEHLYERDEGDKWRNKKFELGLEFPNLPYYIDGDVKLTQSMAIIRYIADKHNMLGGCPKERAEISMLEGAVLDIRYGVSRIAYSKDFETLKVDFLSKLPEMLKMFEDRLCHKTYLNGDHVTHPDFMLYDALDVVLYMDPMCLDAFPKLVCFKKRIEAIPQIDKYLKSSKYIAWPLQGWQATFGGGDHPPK

Sequence of HA-PKBα (haemagglutinin epitope-tagged human PKBα expressed in 293 cells) (human) (P31749 whole entry): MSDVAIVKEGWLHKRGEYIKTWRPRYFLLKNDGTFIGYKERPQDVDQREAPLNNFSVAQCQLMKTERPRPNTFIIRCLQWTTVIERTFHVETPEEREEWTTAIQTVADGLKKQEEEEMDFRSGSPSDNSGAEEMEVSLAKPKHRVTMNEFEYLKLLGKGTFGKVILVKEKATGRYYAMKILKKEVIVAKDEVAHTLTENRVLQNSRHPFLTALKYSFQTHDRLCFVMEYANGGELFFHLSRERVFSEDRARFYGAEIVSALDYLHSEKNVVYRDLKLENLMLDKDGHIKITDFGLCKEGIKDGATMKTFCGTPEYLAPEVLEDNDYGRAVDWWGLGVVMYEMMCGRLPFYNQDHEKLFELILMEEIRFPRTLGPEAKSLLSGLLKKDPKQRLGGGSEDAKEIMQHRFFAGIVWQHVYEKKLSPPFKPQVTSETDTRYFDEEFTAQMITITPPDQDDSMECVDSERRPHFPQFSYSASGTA

Substance: Myc-PDK1 (N-terminal Myc epitope-tagged human PDK1, residues 52-556, expressed in 293 cells) (from UniProt O15530 52-556) (enzyme)
- Thr308 phosphorylation of HA-PKBα in unstimulated cotransfected 293 cells, relative to IGF1-stimulated cells with HA-PKBα alone [1]: 70%
- activity of HA-PKBα immunoprecipitated from cotransfected 293 cells after IGF-1 [1]: 70 fold
- activity of HA-PKBα immunoprecipitated from cotransfected, unstimulated 293 cells [1]: 20 fold
- further increase of Thr308 phosphorylation of HA-PKBα in cotransfected cells in response to IGF1 [1]: 4 fold

Substance: PtdIns(3,4,5)P3-dependent protein kinase-1 (PDK1) purified from rabbit skeletal muscle (enzyme)
- fold activation with sn-1,2-dipalmitoyl D-PtdIns(3,4,5)P3 [2]: 5.5 fold
- fold activation with sn-1-stearoyl, 2-arachidonyl D-PtdIns(3,4,5)P3 (lipid 1) [2]: 13 fold
- fold activation with sn-2-arachidonyl, 3-stearoyl D-PtdIns(3,4,5)P3 [2]: 16 fold
- fold activation with sn-2-arachidonyl, 3-stearoyl L-PtdIns(3,4,5)P3 [2]: 2.3 fold
- fold activation with the L-enantiomer of sn-1-stearoyl, 2-arachidonyl PtdIns(3,4,5)P3 [2]: 1.7 fold
